Experimental data published in paper PMC12507909, “The reticulocyte restriction: invasion ligand RBP1a of Plasmodium vivax targets human TfR1, prohibitin-2, and basigin” (Frontiers in Cellular and Infection Microbiology, 2025).

Molecular target: T1, transferrin receptor protein 1 (TfR1), recombinant extracellular domain Cys89-Phe760 (human, UniProt P02786 89-760)
T1 construct: Human transferrin receptor protein 1 (TfR1/CD71), extracellular domain, Cys89-Phe760; also called CD71; the 89–760 domain of TfR1; source: bought: SinoBiological
Assay: ELISA; Maxisorp plates coated with 5 μg/mL of each receptor candidate; serial dilutions of PvRBP1a_(158-650)LTID and LTID (48,000 pM to 187.5 pM and 4,000 pM to 1.28 pM) in blocking solution, 16 hours at 4°C; detected with a TurboID-specific antibody; one-site binding saturation model; triplicates
Settings: both partners purified

T1 sequence (P02786 89-760): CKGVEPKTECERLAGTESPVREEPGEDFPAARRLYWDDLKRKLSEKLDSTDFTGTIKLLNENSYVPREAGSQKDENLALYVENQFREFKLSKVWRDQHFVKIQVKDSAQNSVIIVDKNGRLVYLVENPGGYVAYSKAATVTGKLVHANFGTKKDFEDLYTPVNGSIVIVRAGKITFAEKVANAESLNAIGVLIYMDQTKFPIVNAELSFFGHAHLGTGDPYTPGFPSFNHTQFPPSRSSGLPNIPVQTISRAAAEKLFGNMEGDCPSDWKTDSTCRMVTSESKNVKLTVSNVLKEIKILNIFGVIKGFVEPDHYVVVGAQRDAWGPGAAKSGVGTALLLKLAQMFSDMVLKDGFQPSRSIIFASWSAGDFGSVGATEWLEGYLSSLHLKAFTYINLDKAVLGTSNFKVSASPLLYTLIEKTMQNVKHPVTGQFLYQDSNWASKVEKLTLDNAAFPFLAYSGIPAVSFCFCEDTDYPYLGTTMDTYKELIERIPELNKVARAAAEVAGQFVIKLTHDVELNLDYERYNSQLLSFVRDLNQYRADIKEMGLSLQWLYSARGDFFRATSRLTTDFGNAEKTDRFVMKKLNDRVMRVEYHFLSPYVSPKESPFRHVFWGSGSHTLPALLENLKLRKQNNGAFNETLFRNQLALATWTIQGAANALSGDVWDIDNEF

B1: PvRBP1a_(158-650)LTID fusion protein (domain or fragment)
chain: YNSIVDMSEKLKENDKYNLVFDMEIDFVDLQFFNLILELIPKDSQYHTYYEETLKQQVTEYTNSLKTLMDSCISEKDQMIILEYEINYAKRKSIETETLGDKETKLSAVSQAYAKHLESYKGVLKPKLNDIKNNAFSVLKDSYCKDNCGEYVQKYNTMRKNFISSSDQYKMEAYMYIPKSINDYTVLDKILSESNELGIDIQETVNSLKLLGEEISEVSHLYVINSTLIDDAAKKLESINEEDESAEIDLQKFEDNSKALANNYCIFQYIKTLNEPIKKAYESKVIKSNELLSTIIDTLGKSATALQESTFNQEECNKIKTEAEKVKDDAEDIYEKNEQIYYEIPESEDETIADKINDLQYLIDQMNEYKDEIVNNSEFISNRYKNIYENLKETYETELNDIGQLENDTSKVNFYLMQIRKINTEKTKIDESLQTVEKFYKGILDLKEKIYELKIEFEKSVTEINRLQDGESARDLHEEQIKEILDKMAKKVH
notes: Synthetic gene optimised for E. coli, in pET-28a(+) between NcoI and XhoI; About 94 kDa; Details of expression and purification are in the Supplementary Data; also called PvRBP1a (158–650)-TurboID; PvRBP1a_(158-650)LITD
Q: How did the Kd turn out when B1 was run?
A: 1.15 nM
